Data from US8263350B2, “Molecular affinity clamp technology and uses thereof” (The University of Chicago, priority 2009, dated 2012).
Blank lines part the entries; values can stand above or below the molecule they belong to. Ends that are not written are not given here.

How the values were obtained:
ePDZ-b2 = assay: SPR binding of the new tag peptide to ePDZ-b2; settings: FIG. 9, SPR, ePDZ-b2 immobilized
Experimental: The affinity clamps were immobilized and the target peptides in the form of yeast SUMO fusion protein were used as the analytes. (a) Sensorgrams for the interaction of the wild-type ARVCF peptide and ePDZ-b2. Data with 0, 10, 20, 40, 80 and 160 nM peptide are shown in black, and calculated curves from the global fittings of the 1:1 Langmuir binding model are in orange. The estimated dissociation constant is indicated. The peptide sequence is also shown. (b) Sensorgrams for the interaction of the new tag peptide to ePDZ-b2. Data with 0, 10, 20, 40 and 80 nM target are shown.
(§1) Affinity Measurements. SPR measurements were performed in 20 mM HEPES/NaOH buffer (pH 7.4), 150 mM NaCl, and 0.005% Tween 20 at 25° C. on a BIAcore 2000 instrument. The affinity clamp or the linker mutant was immobilized on a Ni-NTA chip to the level of approximate 300 RU, and different concentrations of SUMO-peptide fusion protein were injected. The kinetic data were analyzed using the one-to-one binding model in BIAEvaluation (BIAcore). For weak interactions (Kd>5 μM), Kd values were determined from the saturation curve of the maximum RU values.

ARVCF peptide = target: T1, ARVCF peptide (Homo sapiens, UniProt O00192); assay: SPR affinity measurement of affinity clamps with the ARVCF peptide; assay type: binding; settings: 25° C.
T1 construct: His tag (N, cleaved yes); made in house; host or cells: E. coli BL21(DE3)
Experimental: (§2) Protein Expression and Purification. All proteins used in this study were expressed using derivatives of the pHFT2 expression vector in E. coli BL21(DE3) cells. Protein expression was induced with 500 μM IPTG for three to five hours at 25° C. Proteins were purified with Ni affinity chromatography following standard protocols. When necessary, a second step of purification with Sephacryl S-100 column in PBS (50 mM sodium phosphate containing 150 mM NaCl, pH 7.4) was performed to ensure that proteins were monomeric. For protein crystallization and SPR experiments, the N-terminal His tag was cleaved with TEV protease and the cleaved protein was purified using Ni affinity chromatography.
(§3) Site-directed mutagenesis. Mutant forms of the SUMO-ARVCF peptide fusion protein and linker mutants of affinity clamps were constructed using Kunkel mutagenesis.
as §1

δ-catenin peptide = target: T2, δ-catenin peptide (Homo sapiens, UniProt Q9UQB3); assay: SPR affinity measurement of affinity clamps with the δ-catenin peptide; assay type: binding
T2 construct: His tag (N, cleaved yes); made in house; host or cells: E. coli BL21(DE3)
Experimental: as §2, §1

[1] = system: ARVCF peptide (alanine substituted); assay: Ala-scanning of the ARVCF peptide with SPR affinity measurements; assay type: binding; settings: substitution at each of the four positions −7 to −4 of the ARVCF peptide
Text: Alanine-scanning mutagenesis analysis. Although the phage-display library approach is powerful in determining general trends in sequence specificity, large-scale sequencing is necessary for quantitatively characterizing protein-interaction energetics (Skelton et al., 2003; Sidhu and Koide, 2007). This requirement is acute particularly when there is a strong amino acid preference and thus recovered clones are dominated by a particular pattern, as in our case above. Accordingly, to complement the library sorting experiments described above, the inventors performed Ala-scanning experiments of the ARVCF peptide coupled with affinity measurements using SPR. Because the goal was to understand the differences in target recognition of the affinity clamps, and because the sequence specificity of the C-terminal four residues is predominantly defined by the specificity of the parent PDZ domain, the inventors analyzed only those positions that differed between the ARVCF and δ-catenin peptides.
as §3
Affinity Measurements. […] The kinetic data were analyzed using the one-to-one binding model in BIAEvaluation (BIAcore). […]

affinity compared with the original (ARVCF) peptide (ePDZ-b2): higher affinity
dissociation rate compared with the original (ARVCF) peptide (ePDZ-b2): much slower
Molecule: RGSIDTWV-COOH (RGSIDTWV-OH) [used in SPR as yeast SUMO fusion]

Kd (ARVCF peptide): 2.2 µM
discrimination between ARVCF peptide and δ-catenin peptide (δ-catenin peptide): almost equally
Kd (δ-catenin peptide; SPR, 25° C.): 6.3 µM
Specificity Index (δ-catenin peptide; ratio of the Kd for δ-catenin to the Kd for ARVCF): 3
decrease in binding (ΔΔG) on alanine substitution [1]: only small effects
B1: Erbin PDZ: wild-type Erbin PDZ domain, the parent capture domain of the affinity clamps (protein)
chain: EIRVRVEKDPELGFSISGGVGGRGNPFRPDDDGIFVTRVQPEGPASKLLQPGDKIIQANGYSFINIEHGQAVSLLKTFQNTVELIIVREV
